{"source": "patent US20220380478A1", "about": "(TONIX PHARMA, published 2022)", "key": {"FcγRIA (CD64) [1]": {"molecular_target": "T1, FcγRIA (CD64) (UniProt P12314 16-292, limits assumed)", "T1 construct": "also called FcgRIa; FcγR1A", "T1 sequence (P12314 16-292 limits assumed)": "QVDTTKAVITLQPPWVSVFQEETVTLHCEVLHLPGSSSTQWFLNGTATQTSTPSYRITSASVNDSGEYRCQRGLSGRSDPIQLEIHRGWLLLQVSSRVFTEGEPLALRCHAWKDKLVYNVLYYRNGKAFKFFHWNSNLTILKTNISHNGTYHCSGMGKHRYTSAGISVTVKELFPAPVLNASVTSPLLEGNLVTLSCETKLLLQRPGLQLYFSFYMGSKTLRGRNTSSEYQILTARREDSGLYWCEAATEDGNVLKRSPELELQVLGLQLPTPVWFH", "assay": "SPR (Biacore T200); mAb captured on Protein A, FcγRIA injected", "procedure": "(§1) Specifically, FcγRIA was injected over anti-CD154 antibody pools immobilized onto a Protein A surface (2,000 Rus; Cat #Z02201 […] ®, Piscataway, N.J.), using PBST pH 7.4 (PBS with 0.05% Tween 20) as the running buffer. […] The regeneration was conducted with 1×60s 10 mM glycine pH 1.5, flow 30 μL/min."}, "CD16aF (FcγRIIIaF) [2]": {"molecular_target": "T2, CD16aF (FcγRIIIaF) (UniProt P08637 17-208)", "T2 sequence (P08637 17-208)": "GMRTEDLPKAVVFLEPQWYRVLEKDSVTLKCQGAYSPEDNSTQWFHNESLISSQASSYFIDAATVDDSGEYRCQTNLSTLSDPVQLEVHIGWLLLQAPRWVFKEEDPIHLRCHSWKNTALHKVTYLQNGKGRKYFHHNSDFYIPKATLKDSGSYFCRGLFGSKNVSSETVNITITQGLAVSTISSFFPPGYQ", "assay": "SPR (Biacore T200); mAb captured on Protein A, FcγR injected; steady-state affinity", "procedure": "The analytes were antigens in the FcγR panel (CD16aF, CD16aV, CD32aH, CD32bF; National Research Council, Canada), which were resuspended in PBST containing 3.4 mM EDTA and 0.05% Tween20."}, "FcγRIA (CD64) [3]": {"molecular_target": "T1, FcγRIA (CD64)", "assay": "SPR (Biacore T200), FcγRIA binding; run with TNX06-TNX13"}, "FcγRIA (CD64) [4]": {"molecular_target": "T1, FcγRIA (CD64)", "assay": "SPR (Biacore T200); mAb captured on Protein A, FcγRIA injected; run with TNX01-TNX05", "procedure": "as §1"}, "FcγRIA (CD64) [5]": {"molecular_target": "T1, FcγRIA (CD64)", "assay": "SPR (Biacore T200), FcγRIA binding"}, "CD16aF (FcγRIIIaF) [6]": {"molecular_target": "T2, CD16aF (FcγRIIIaF)", "assay": "SPR (Biacore T200), low-affinity FcγR panel"}, "CD16aV (FcγRIIIaV)": {"molecular_target": "CD16aV (FcγRIIIaV) (UniProt P08637 17-208)", "sequence (P08637 17-208 F176V)": "as the sequence (P08637 17-208) above, with F160V counted along it", "assay": "SPR (Biacore T200), low-affinity FcγR panel"}, "CD32aH (FcγRIIaH)": {"molecular_target": "T3, CD32aH (FcγRIIaH) (UniProt P12318 34-217)", "T3 sequence (looked up)": "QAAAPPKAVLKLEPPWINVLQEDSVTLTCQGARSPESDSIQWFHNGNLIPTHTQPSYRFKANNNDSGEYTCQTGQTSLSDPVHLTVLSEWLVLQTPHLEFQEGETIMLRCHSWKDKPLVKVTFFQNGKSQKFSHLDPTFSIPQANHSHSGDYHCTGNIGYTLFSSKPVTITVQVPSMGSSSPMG", "assay": "SPR (Biacore T200), low-affinity FcγR panel"}, "FcγRIA (CD64) [7]": {"molecular_target": "T1, FcγRIA (CD64)", "assay": "SPR (Biacore T200); mAb captured on Protein A, FcγRIA injected; steady-state end-point analysis", "procedure": "as §1"}}}
{"binder": "TNX05 anti-CD154 monoclonal antibody (antibody, human IgG4 S228P, kappa, also called hu5c8 mutated-IgG4 (IgG4 S228P/L235A)) heavy: not shown light: DIVLTQSPATLSVSPGERATISCRASQRVSSSTYSYMHWYQQKPGQPPKLLIKYASNLESGVPARFSGSGSGTDFTLTISSVEPEDFATYYCQHSWEIPPTFGGGTKLEIKRTVAAPSVFIFPPSDEQLKSGTASVVCLLNNFYPREAKVQWKVDNALQSGNSQESVTEQDSKDSTYSLSSTLTLSKADYEKHKVYACEVTHQGLSSPVTKSFNRGEC", "values": [{"measurement": "fold loss of activity (against TNX02)", "setting": "FcγRIA (CD64) [1]", "value": 300, "unit": "fold"}, {"measurement": "binding result", "setting": "CD16aF (FcγRIIIaF) [2]", "value": "binds"}]}
{"binder": "TNX02 anti-CD154 monoclonal antibody (antibody, human IgG1, kappa, also called IgG1 (wildtype)) heavy: not shown light: DIVLTQSPATLSVSPGERATISCRASQRVSSSTYSYMHWYQQKPGQPPKLLIKYASNLESGVPARFSGSGSGTDFTLTISSVEPEDFATYYCQHSWEIPPTFGGGTKLEIKRTVAAPSVFIFPPSDEQLKSGTASVVCLLNNFYPREAKVQWKVDNALQSGNSQESVTEQDSKDSTYSLSSTLTLSKADYEKHKVYACEVTHQGLSSPVTKSFNRGEC", "values": [{"measurement": "Kd", "setting": "FcγRIA (CD64) [3]", "value": "~0.04", "unit": "nM"}, {"measurement": "binding result", "setting": "CD16aF (FcγRIIIaF) [2]", "value": "binds"}, {"measurement": "Kd", "setting": "FcγRIA (CD64) [4]", "value": "~0.03", "unit": "nM"}]}
{"binder": "TNX12 anti-CD154 monoclonal antibody (antibody, human IgG1, kappa, also called IgG1 (C229S, P238S)) heavy: not shown light: DIVLTQSPATLSVSPGERATISCRASQRVSSSTYSYMHWYQQKPGQPPKLLIKYASNLESGVPARFSGSGSGTDFTLTISSVEPEDFATYYCQHSWEIPPTFGGGTKLEIKRTVAAPSVFIFPPSDEQLKSGTASVVCLLNNFYPREAKVQWKVDNALQSGNSQESVTEQDSKDSTYSLSSTLTLSKADYEKHKVYACEVTHQGLSSPVTKSFNRGEC", "values": [{"measurement": "binding result", "setting": "FcγRIA (CD64) [5]", "value": "binds"}, {"measurement": "binding result", "setting": "CD16aF (FcγRIIIaF) [6]", "value": "no binding"}, {"measurement": "binding result", "setting": "CD16aV (FcγRIIIaV)", "value": "no binding"}, {"measurement": "binding result", "setting": "CD32aH (FcγRIIaH)", "value": "no binding"}]}
{"binder": "TNX03 anti-CD154 monoclonal antibody (antibody, human IgG1, kappa, N297G, also called IgG1 (N297G)) heavy: not shown light: DIVLTQSPATLSVSPGERATISCRASQRVSSSTYSYMHWYQQKPGQPPKLLIKYASNLESGVPARFSGSGSGTDFTLTISSVEPEDFATYYCQHSWEIPPTFGGGTKLEIKRTVAAPSVFIFPPSDEQLKSGTASVVCLLNNFYPREAKVQWKVDNALQSGNSQESVTEQDSKDSTYSLSSTLTLSKADYEKHKVYACEVTHQGLSSPVTKSFNRGEC", "values": [{"measurement": "fold loss of activity (against TNX02)", "setting": "FcγRIA (CD64) [7]", "value": 3000, "unit": "fold"}]}
{"binder": "TNX10 anti-CD154 monoclonal antibody (antibody, human IgG1, kappa, L234A L235A, also called IgG1 (L234A, L235A)) heavy: not shown light: DIVLTQSPATLSVSPGERATISCRASQRVSSSTYSYMHWYQQKPGQPPKLLIKYASNLESGVPARFSGSGSGTDFTLTISSVEPEDFATYYCQHSWEIPPTFGGGTKLEIKRTVAAPSVFIFPPSDEQLKSGTASVVCLLNNFYPREAKVQWKVDNALQSGNSQESVTEQDSKDSTYSLSSTLTLSKADYEKHKVYACEVTHQGLSSPVTKSFNRGEC", "values": [{"measurement": "fold weaker binding than TNX02", "setting": "FcγRIA (CD64) [5]", "value": 1800, "unit": "fold"}, {"measurement": "binding result", "setting": "CD16aF (FcγRIIIaF) [6]", "value": "no binding"}, {"measurement": "fold loss (against TNX02)", "setting": "CD16aV (FcγRIIIaV)", "value": "~12", "unit": "fold"}, {"measurement": "binding result", "setting": "CD32aH (FcγRIIaH)", "value": "no binding"}]}
{"binder": "TNX11 anti-CD154 monoclonal antibody (antibody, human IgG1, kappa, also called IgG1 (C226S, C229S, P238S)) heavy: not shown light: DIVLTQSPATLSVSPGERATISCRASQRVSSSTYSYMHWYQQKPGQPPKLLIKYASNLESGVPARFSGSGSGTDFTLTISSVEPEDFATYYCQHSWEIPPTFGGGTKLEIKRTVAAPSVFIFPPSDEQLKSGTASVVCLLNNFYPREAKVQWKVDNALQSGNSQESVTEQDSKDSTYSLSSTLTLSKADYEKHKVYACEVTHQGLSSPVTKSFNRGEC", "values": [{"measurement": "binding result", "setting": "FcγRIA (CD64) [5]", "value": "binds"}]}
{"binder": "TNX01 anti-CD154 monoclonal antibody (antibody, human IgG1, kappa, N297Q, also called IgG1 (N297Q)) heavy: not shown light: DIVLTQSPATLSVSPGERATISCRASQRVSSSTYSYMHWYQQKPGQPPKLLIKYASNLESGVPARFSGSGSGTDFTLTISSVEPEDFATYYCQHSWEIPPTFGGGTKLEIKRTVAAPSVFIFPPSDEQLKSGTASVVCLLNNFYPREAKVQWKVDNALQSGNSQESVTEQDSKDSTYSLSSTLTLSKADYEKHKVYACEVTHQGLSSPVTKSFNRGEC", "values": [{"measurement": "fold loss of activity (against TNX02)", "setting": "FcγRIA (CD64) [7]", "value": 3000, "unit": "fold"}]}
{"binder": "TNX06 anti-CD154 monoclonal antibody (antibody, human IgG4, kappa, also called IgG4 Wild Type) heavy: not shown light: DIVLTQSPATLSVSPGERATISCRASQRVSSSTYSYMHWYQQKPGQPPKLLIKYASNLESGVPARFSGSGSGTDFTLTISSVEPEDFATYYCQHSWEIPPTFGGGTKLEIKRTVAAPSVFIFPPSDEQLKSGTASVVCLLNNFYPREAKVQWKVDNALQSGNSQESVTEQDSKDSTYSLSSTLTLSKADYEKHKVYACEVTHQGLSSPVTKSFNRGEC", "values": [{"measurement": "binding result", "setting": "FcγRIA (CD64) [5]", "value": "binds"}, {"measurement": "binding result", "setting": "CD16aF (FcγRIIIaF) [6]", "value": "binds"}]}
{"binder": "TNX04 anti-CD154 monoclonal antibody (antibody, also called IgG1 (C220S, C226S, C229S, P238S)) heavy: not shown light: DIVLTQSPATLSVSPGERATISCRASQRVSSSTYSYMHWYQQKPGQPPKLLIKYASNLESGVPARFSGSGSGTDFTLTISSVEPEDFATYYCQHSWEIPPTFGGGTKLEIKRTVAAPSVFIFPPSDEQLKSGTASVVCLLNNFYPREAKVQWKVDNALQSGNSQESVTEQDSKDSTYSLSSTLTLSKADYEKHKVYACEVTHQGLSSPVTKSFNRGEC", "values": [{"measurement": "fold loss of activity (against TNX02)", "setting": "FcγRIA (CD64) [1]", "value": 11, "unit": "fold"}, {"measurement": "binding result", "setting": "CD16aF (FcγRIIIaF) [2]", "value": "no binding (tested: 12 µM to 0.062 µM)"}]}
{"binder": "TNX09 anti-CD154 monoclonal antibody (antibody, human IgG4 S228P, kappa, F234A L235A, also called IgG4 (S228P, F234A, L235A)) heavy: not shown light: DIVLTQSPATLSVSPGERATISCRASQRVSSSTYSYMHWYQQKPGQPPKLLIKYASNLESGVPARFSGSGSGTDFTLTISSVEPEDFATYYCQHSWEIPPTFGGGTKLEIKRTVAAPSVFIFPPSDEQLKSGTASVVCLLNNFYPREAKVQWKVDNALQSGNSQESVTEQDSKDSTYSLSSTLTLSKADYEKHKVYACEVTHQGLSSPVTKSFNRGEC", "values": [{"measurement": "fold weaker binding than TNX02", "setting": "FcγRIA (CD64) [5]", "value": 3800, "unit": "fold"}, {"measurement": "binding result", "setting": "CD16aF (FcγRIIIaF) [6]", "value": "no binding"}, {"measurement": "fold loss (against TNX02)", "setting": "CD16aV (FcγRIIIaV)", "value": "~12", "unit": "fold"}, {"measurement": "binding result", "setting": "CD32aH (FcγRIIaH)", "value": "no binding"}]}
{"binder": "TNX13 anti-CD154 monoclonal antibody (antibody, human IgG1, kappa, also called IgG1 (C226S, P238S)) heavy: not shown light: DIVLTQSPATLSVSPGERATISCRASQRVSSSTYSYMHWYQQKPGQPPKLLIKYASNLESGVPARFSGSGSGTDFTLTISSVEPEDFATYYCQHSWEIPPTFGGGTKLEIKRTVAAPSVFIFPPSDEQLKSGTASVVCLLNNFYPREAKVQWKVDNALQSGNSQESVTEQDSKDSTYSLSSTLTLSKADYEKHKVYACEVTHQGLSSPVTKSFNRGEC", "values": [{"measurement": "binding result", "setting": "FcγRIA (CD64) [5]", "value": "binds"}, {"measurement": "binding result", "setting": "CD16aF (FcγRIIIaF) [6]", "value": "no binding"}, {"measurement": "binding result", "setting": "CD16aV (FcγRIIIaV)", "value": "no binding"}, {"measurement": "fold loss of binding activity (against TNX02)", "setting": "CD32aH (FcγRIIaH)", "value": 17, "unit": "fold"}]}
{"binder": "TNX08 anti-CD154 monoclonal antibody (antibody, human IgG4 S228P, kappa, also called IgG4 (S228P, L235E)) heavy: not shown light: DIVLTQSPATLSVSPGERATISCRASQRVSSSTYSYMHWYQQKPGQPPKLLIKYASNLESGVPARFSGSGSGTDFTLTISSVEPEDFATYYCQHSWEIPPTFGGGTKLEIKRTVAAPSVFIFPPSDEQLKSGTASVVCLLNNFYPREAKVQWKVDNALQSGNSQESVTEQDSKDSTYSLSSTLTLSKADYEKHKVYACEVTHQGLSSPVTKSFNRGEC", "values": [{"measurement": "fold weaker binding than TNX02", "setting": "FcγRIA (CD64) [5]", "value": 2600, "unit": "fold"}, {"measurement": "binding result", "setting": "CD16aF (FcγRIIIaF) [6]", "value": "binds"}]}
